Drawing on the Human Domainome abundance scans (Beltran et al. 2025), this text covers abundance fitness for 46 substances.

± gives the uncertainty stated by the source.

The nature of the data set: abundance fitness (aPCA) (normalised: wild type 0, dead -1); higher = more abundant; growth selection in yeast, the domain comes from the species named. The following applies: Homo sapiens.
Substance “Lipoamide acyltransferase component of branched-chain alpha-keto acid dehydrogenase complex, mitochondrial R199M, P11182” registered an abundance fitness of -0.088 ± 0.088. The same measure for “Lipoamide acyltransferase component of branched-chain alpha-keto acid dehydrogenase complex, mitochondrial R199P, P11182”: -0.784 ± 0.079; for “Lipoamide acyltransferase component of branched-chain alpha-keto acid dehydrogenase complex, mitochondrial R199Q, P11182”: 0.045 ± 0.045; for “Lipoamide acyltransferase component of branched-chain alpha-keto acid dehydrogenase complex, mitochondrial R199S, P11182”: -0.08 ± 0.048. The result for “Lipoamide acyltransferase component of branched-chain alpha-keto acid dehydrogenase complex, mitochondrial R199T, P11182” reads -0.006 ± 0.062. The substance “Lipoamide acyltransferase component of branched-chain alpha-keto acid dehydrogenase complex, mitochondrial R199V, P11182” displayed an abundance fitness of -0.129 ± 0.044.

Turning to “Lipoamide acyltransferase component of branched-chain alpha-keto acid dehydrogenase complex, mitochondrial R199W, P11182”, the abundance fitness was -0.117 ± 0.046. The same measure for “Lipoamide acyltransferase component of branched-chain alpha-keto acid dehydrogenase complex, mitochondrial S189A, P11182”: -0.03 ± 0.04; for “Lipoamide acyltransferase component of branched-chain alpha-keto acid dehydrogenase complex, mitochondrial S189C, P11182”: -0.111 ± 0.071; for “Lipoamide acyltransferase component of branched-chain alpha-keto acid dehydrogenase complex, mitochondrial S189E, P11182”: -0.001 ± 0.042. The result for “Lipoamide acyltransferase component of branched-chain alpha-keto acid dehydrogenase complex, mitochondrial S189F, P11182” reads -0.343 ± 0.058; that for “Lipoamide acyltransferase component of branched-chain alpha-keto acid dehydrogenase complex, mitochondrial S189G, P11182”, -0.065 ± 0.039; that for “Lipoamide acyltransferase component of branched-chain alpha-keto acid dehydrogenase complex, mitochondrial S189K, P11182”, -0.135 ± 0.068.

Take “Lipoamide acyltransferase component of branched-chain alpha-keto acid dehydrogenase complex, mitochondrial S189L, P11182”: the abundance fitness was -0.45 ± 0.046. “Lipoamide acyltransferase component of branched-chain alpha-keto acid dehydrogenase complex, mitochondrial S189M, P11182” returned an abundance fitness of -0.264 ± 0.061. The same measure for “Lipoamide acyltransferase component of branched-chain alpha-keto acid dehydrogenase complex, mitochondrial S189P, P11182”: -0.232 ± 0.068; for “Lipoamide acyltransferase component of branched-chain alpha-keto acid dehydrogenase complex, mitochondrial S189Q, P11182”: -0.097 ± 0.054; for “Lipoamide acyltransferase component of branched-chain alpha-keto acid dehydrogenase complex, mitochondrial S189R, P11182”: -0.09 ± 0.039.

“Lipoamide acyltransferase component of branched-chain alpha-keto acid dehydrogenase complex, mitochondrial S189T, P11182”: the abundance fitness was -0.033 ± 0.046. Consider “Lipoamide acyltransferase component of branched-chain alpha-keto acid dehydrogenase complex, mitochondrial S189V, P11182”, for which the abundance fitness was -0.199 ± 0.043. The result for “Lipoamide acyltransferase component of branched-chain alpha-keto acid dehydrogenase complex, mitochondrial S189Y, P11182” reads -0.258 ± 0.19; that for “Lipoamide acyltransferase component of branched-chain alpha-keto acid dehydrogenase complex, mitochondrial S194A, P11182”, -0.564 ± 0.073; that for “Lipoamide acyltransferase component of branched-chain alpha-keto acid dehydrogenase complex, mitochondrial S194C, P11182”, -0.47 ± 0.045. The result for “Lipoamide acyltransferase component of branched-chain alpha-keto acid dehydrogenase complex, mitochondrial S194E, P11182” reads -0.504 ± 0.049; that for “Lipoamide acyltransferase component of branched-chain alpha-keto acid dehydrogenase complex, mitochondrial S194F, P11182”, -0.917 ± 0.088; that for “Lipoamide acyltransferase component of branched-chain alpha-keto acid dehydrogenase complex, mitochondrial S194G, P11182”, -0.319 ± 0.052. In the case of “Lipoamide acyltransferase component of branched-chain alpha-keto acid dehydrogenase complex, mitochondrial S194I, P11182”, the abundance fitness is -0.738 ± 0.12. For “Lipoamide acyltransferase component of branched-chain alpha-keto acid dehydrogenase complex, mitochondrial S194K, P11182”, the abundance fitness is -0.378 ± 0.057. The same measure for “Lipoamide acyltransferase component of branched-chain alpha-keto acid dehydrogenase complex, mitochondrial S194M, P11182”: -0.628 ± 0.082; for “Lipoamide acyltransferase component of branched-chain alpha-keto acid dehydrogenase complex, mitochondrial S194N, P11182”: -0.287 ± 0.049. The result for “Lipoamide acyltransferase component of branched-chain alpha-keto acid dehydrogenase complex, mitochondrial S194P, P11182” reads -0.694 ± 0.075; that for “Lipoamide acyltransferase component of branched-chain alpha-keto acid dehydrogenase complex, mitochondrial S194R, P11182”, -0.314 ± 0.037.

In the case of “Lipoamide acyltransferase component of branched-chain alpha-keto acid dehydrogenase complex, mitochondrial S194T, P11182”, the abundance fitness is -0.013 ± 0.06.

“Lipoamide acyltransferase component of branched-chain alpha-keto acid dehydrogenase complex, mitochondrial S194V, P11182” had an abundance fitness of -0.864 ± 0.064. “Lipoamide acyltransferase component of branched-chain alpha-keto acid dehydrogenase complex, mitochondrial S194W, P11182” gave an abundance fitness of -0.937 ± 0.069. With “Lipoamide acyltransferase component of branched-chain alpha-keto acid dehydrogenase complex, mitochondrial T171A, P11182”, the abundance fitness was -0.215 ± 0.055. “Lipoamide acyltransferase component of branched-chain alpha-keto acid dehydrogenase complex, mitochondrial T171C, P11182” gave an abundance fitness of -0.282 ± 0.063.

The substance “Lipoamide acyltransferase component of branched-chain alpha-keto acid dehydrogenase complex, mitochondrial T171D, P11182” registered an abundance fitness of -0.035 ± 0.073. The same measure for “Lipoamide acyltransferase component of branched-chain alpha-keto acid dehydrogenase complex, mitochondrial T171E, P11182”: -0.268 ± 0.058. The result for “Lipoamide acyltransferase component of branched-chain alpha-keto acid dehydrogenase complex, mitochondrial T171F, P11182” reads -0.028 ± 0.12; that for “Lipoamide acyltransferase component of branched-chain alpha-keto acid dehydrogenase complex, mitochondrial T171K, P11182”, -0.061 ± 0.069; that for “Lipoamide acyltransferase component of branched-chain alpha-keto acid dehydrogenase complex, mitochondrial T171L, P11182”, -0.632 ± 0.17.

On to “Lipoamide acyltransferase component of branched-chain alpha-keto acid dehydrogenase complex, mitochondrial T171M, P11182”, for which the abundance fitness came out at 0.031 ± 0.062. The same measure for “Lipoamide acyltransferase component of branched-chain alpha-keto acid dehydrogenase complex, mitochondrial T171N, P11182”: -0.012 ± 0.058; for “Lipoamide acyltransferase component of branched-chain alpha-keto acid dehydrogenase complex, mitochondrial T171P, P11182”: -0.422 ± 0.11. Take “Lipoamide acyltransferase component of branched-chain alpha-keto acid dehydrogenase complex, mitochondrial T171Q, P11182”: the abundance fitness was -0.391 ± 0.09.
